For 2 molecules, Kd results are on record in US12404328 (CULLINAN MANAGEMENT, dated 2025).

A word on the Kd: it is the constant that tells how readily two partners part at equilibrium. A high value points to lower affinity.

The target of assay [1] is T1, monomeric CD19 extracellular domain (UniProt P15391 20-291, limits assumed).
T1 construct: extracellular domain; also called monomeric CD19 protein
T1 sequence (looked up): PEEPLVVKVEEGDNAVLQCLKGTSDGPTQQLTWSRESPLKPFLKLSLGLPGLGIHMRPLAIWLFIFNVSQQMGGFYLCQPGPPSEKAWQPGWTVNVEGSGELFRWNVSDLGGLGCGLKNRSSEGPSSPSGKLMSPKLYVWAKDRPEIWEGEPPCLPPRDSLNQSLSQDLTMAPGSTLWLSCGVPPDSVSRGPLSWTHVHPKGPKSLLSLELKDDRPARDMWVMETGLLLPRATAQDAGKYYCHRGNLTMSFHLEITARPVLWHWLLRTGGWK
Put plainly: SPR as printed, ForteBio instrument (per Estep et al. 2013); monomeric CD19 extracellular domain; monomeric CD19 protein. As to the method:
(§1) As noted above, the constructs produced contained an anti-CD19 scFv having the amino acid sequence set forth in SEQ ID NO: 9 or 18. The binding affinity of the two CD19 binding domains to CD19 were measured by SPR using a monomeric CD19 extracellular domain and a dimeric CD19 extracellular domain fused with human IgG1 Fc. Binding kinetic parameters were measured using an instrument (available under the tradename ForteBio™ from Pall Corporation®) generally as previously described (see, Estep et al. (2013) MAbs, 5 (2): 270-78).
(In general: BLI is a label-free optical method that tracks binding on a fibre tip over time.)

Assay [2] concerns the target T2, dimeric CD19 extracellular domain fused with human IgG1 Fc (human, UniProt P15391 20-291, limits assumed).
T2 construct: extracellular domain; also called dimeric CD19 protein; not shown: human IgG1 Fc
T2 sequence (looked up): T1 sequence (looked up)
Put plainly: SPR as printed, ForteBio instrument (per Estep et al. 2013); dimeric CD19 extracellular domain-human IgG1 Fc; dimeric CD19 protein (IgG1 Fc fusion). As to the method:
as §1

B1: CD19 binding domain having the sequence of SEQ ID NO: 9 (scFv)
scFv: QVQLVQSGAEVKKPGASVKVSCKASGYTFTDYIMHWVRQAPGQGLEWMGYINPYNDGSKYTEKFQGRVTMTSDTSISTAYMELSRLRSDDTAVYYCARGTYYYGPQLFDYWGQGTTVTVSSGGGGSGGGGSGGGGSDIVMTQTPLSLSVTPGQPASISCKSSQSLETSTGTTYLNWYLQKPGQSPQLLIYRVSKRFSGVPDRFSGSGSGTDFTLKISRVEAEDVGVYYCLQLLEDPYTFGQGTKLEIK
notes: also called Roche mAb scFv
Consider B1, for which the values for the Kd in assay [1] and in assay [2] were 7 nM and 5 nM, respectively.

B2: CD19 binding domain having the sequence of SEQ ID NO: 18 (scFv)
scFv: QVQLQESGPGLVKPSQTLSLTCTVSGGSISTSGMGVGWIRQHPGKGLEWIGHIWWDDDKRYNPALKSRVTISVDTSKNQFSLKLSSVTAADTAVYYCARMELWSYYFDYWGQGTLVTVSSGGGGSGGGGSGGGGSEIVLTQSPATLSLSPGERATLSCSASSSVSYMHWYQQKPGQAPRLLIYDTSKLASGIPARFSGSGSGTDFTLTISSLEPEDFAVYYCFQGSVYPFTFGQGTKLEIKR
notes: also called SG mAb scFv
For B2, the values for the Kd in assay [1] and in assay [2] were 11 nM and 15 nM, respectively.
